In this assay the target is Aiolos (mouse) (UniProt O08900). Put plainly: cell-based or functional assay.
Aiolos (mouse), sequence (O08900 other isoform, or with tags, fused parts or gaps limits assumed): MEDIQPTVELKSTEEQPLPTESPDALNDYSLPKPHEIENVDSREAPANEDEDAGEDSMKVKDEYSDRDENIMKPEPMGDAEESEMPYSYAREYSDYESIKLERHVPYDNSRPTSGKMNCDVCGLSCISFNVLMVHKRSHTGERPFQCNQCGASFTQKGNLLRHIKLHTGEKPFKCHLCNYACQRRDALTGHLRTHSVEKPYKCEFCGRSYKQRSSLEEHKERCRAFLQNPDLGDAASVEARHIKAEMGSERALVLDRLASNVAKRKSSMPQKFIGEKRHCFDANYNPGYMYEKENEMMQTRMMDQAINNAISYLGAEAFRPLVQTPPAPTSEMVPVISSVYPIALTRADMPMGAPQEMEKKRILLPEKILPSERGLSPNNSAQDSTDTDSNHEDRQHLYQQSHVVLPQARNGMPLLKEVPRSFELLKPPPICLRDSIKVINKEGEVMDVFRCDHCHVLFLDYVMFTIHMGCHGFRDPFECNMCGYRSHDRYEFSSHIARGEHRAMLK

“Ikaros isoform Ik-6 (from UniProt Q03267 1-288)” returned a CAT activity from the 4xIK-BS1-tkCAT reporter in transfected NIH-3T3 cells of 65 % reduction.

The values above are taken from patent US20050130265A1.
